B1: 2B11 (antibody, V domains shown)
VH: AVRLVESGGGLAQPGRSLRLSCQVSGFTFGSYEMNWVRQAPGKGLEWIAYIDFTGSTIYYADSVKGRFTISRNTARNSLYLQMNSLRVEDTAVYYCVRDAGRWGTSWYYFDYWGQGTRVTVSP
VL: QSVLTQPPSVSGAPGQRVTISCTGISSNIGAGYDIHWYQQIPGKAPKLLVYGNNNRPSGVPDRFSGSKSGTSVSLAITGLQVEDEADYYCQSYDNSLNGWVFGGGTRLTVL
notes: human IgG; also called 2B11-biotin
B2: 8J16 (antibody, V domains shown)
VH: QVQLQESGPGLVKPSETLSLTCSVSGGFTSSYYWSWIRQAPGKGLEWIGYVYYGESTDYNPSLKSRATISIDTSKNQFSLKLSSVTAADTAVYYCAREVDKRGFDYWGQGALVTVSS
VL: EIVLTQSPGTLSLSPGERATLSCRASQSVSGGYLAWYQQEPGQAPRLVIYGASSRATGIPDRFSASGSGTDFTLTITRLEPEDFAVYYCQQYGRTPLTFGGGTKVEIK
notes: human IgG; also called 8J16-biotin
B3: 9I6 (antibody, V domains shown)
VH: EVQLVQSGAEVKKPGESLKISCRESGDTFPAYWIAWVRQMPGKGLEWMGIIYPIDSETTYSPSFQGQVTISADKSINTAYLQWSSLKASDSAIYYCARGTSTGLREAFHIWGQGTMVTVSS
VL: DVVMTQSPLSLAVTLGQPAYISCRSSQSLGYSDGNTYLNWFQQRPGQSPRRLIYEVSNRDSGVPDRFSGSGSGTDFTLKISRVEAEDVGTYYCMQGTHWPPMCSFGQGTKLEIK
notes: human IgG; also called 9I6-biotin; 916
B4: 8C15 (antibody, V domains shown)
VH: QVQLQESGPGLVKPSETLSLTCTVSGGSIRSYYWSWIRQPPGKGLEWIGHIYYSGNTNYSPSLQSRVTISLDTPKNQFSLRLSSVTAADTAVYYCARHDVIVVRGVFDVWGQGTVVTVSS
VL: QSALTQPASVSGSPGQSITISCTGTSSDIGTYNLVSWYQQHPGKAPKVLIYDGSKRPSGVSSRFSASKSGNTASLTISGLQAEDETDYYCCSYAGTSDFFVVFGGGTKLTVL
notes: human IgG; also called 8C15-biotin
B5: 2C12 (antibody, V domains shown)
VH: QITLRESGPTLVKPTQTLTLTCTFSGFSLNTNGVGVGWIRQPPGKALEWLALIYWNGNEGYSPSLKSRLTITKDTSKNQVVLTMTNMDPVDTATYYCVHWPQGLTTVTRLAFDIWGQGTMVTVSS
VL: QSALTQPRSVSGSPGQSVTISCTGTTSDVGRYNFVSWYQQHPGKAPKLLMYDVSQRPSGVPSRFSGSKSGNTASLTISGLQAEDEAVFYCCSYAGGNFFSYVFGTGTKVTVL
notes: human IgG; also called 2C12-biotin
B6: 7I13 (antibody, V domains shown)
VH: QVQLVESGGGVVQPGRSLRLSCAASGFTFSNYGMHWVRQGPGKGLEWVAVISYDASSKYYTDSVQGRFTISRDNSKNTLFLQMNSLRGEDTAVYYCAKALRYLDWFLSDPFDYWGQGTLVTVSS
VL: EIVLTQSPGTLSLSPGERATLSCRASQSVSSDFLAWYQQKPGQAPRLLIYGASSRATGIPDRFSGSGSGTDFTLTISRLEPEDFAVYYCQQYAASPPFGQGTRLEIK
notes: human IgG; also called 7113

Legend:
[1] = biological target: T1, hCMV glycoprotein B (gB; HEK293T transfectant) (hCMV, UniProt P06473 32-906); assay: cell competition; competitor 4H9-biotin
T1 construct: whole, on cells; in the functional rows it stands for gB on virions or transduced cells of the strain or isolate named in the readout

[2] = biological target: T1, hCMV glycoprotein B (gB; HEK293T …); assay: cell competition; competitor 6B4-biotin
[3] = biological target: T1, hCMV glycoprotein B (gB; HEK293T …); assay: cell competition; competitor 7H3-biotin
[4] = biological target: T1, hCMV glycoprotein B (gB; HEK293T …); assay: cell competition; competitor 2B11-biotin
[5] = biological target: T1, hCMV glycoprotein B (gB; HEK293T …); assay: cell-based or functional assay
[6] = biological target: T1, hCMV glycoprotein B (gB; HEK293T …); assay: cell competition; competitor 10C6-biotin
[7] = biological target: T1, hCMV glycoprotein B (gB; HEK293T …); assay: cell competition; competitor 5F1-biotin
[8] = biological target: T2, hCMV gH + gL + UL128 + UL130 + UL131A (5-member complex; HEK293T co-transfectant) (hCMV, UniProt P12824 24-743; P16832 31-278; P16837 1-171; P16772 1-214); assay: cell competition; competitor 8C15-biotin
T2 construct: whole, on cells; in the functional rows it stands for the complex on virions or transduced cells of the strain or isolate named in the readout; also called gH/gL/UL128-131A complex; pentameric complex

[9] = biological target: T2, hCMV gH + gL + UL128 + UL130 + UL131A …; assay: cell competition; competitor 2C12-biotin
[10] = biological target: T3, hCMV UL128 + UL130 + UL131A (HEK293T co-transfectant) (hCMV, UniProt P16837 1-171; P16772 1-214); assay: cell-based or functional assay
[11] = biological target: T2, hCMV gH + gL + UL128 + UL130 + UL131A …; assay: cell competition; competitor 9I6-biotin
[12] = biological target: T2, hCMV gH + gL + UL128 + UL130 + UL131A …; assay: cell competition; competitor 8I21-biotin
[13] = biological target: T2, hCMV gH + gL + UL128 + UL130 + UL131A …; assay: cell competition; competitor 8J16-biotin
[14] = biological target: T2, hCMV gH + gL + UL128 + UL130 + UL131A …; assay: cell competition; competitor 4I22-biotin
[15] = biological target: T2, hCMV gH + gL + UL128 + UL130 + UL131A …; assay: cell competition; competitor 1F11-biotin
[16] = biological target: T2, hCMV gH + gL + UL128 + UL130 + UL131A …; assay: cell competition; competitor 2F4-biotin
[17] = biological target: T3, hCMV UL128 + UL130 + UL131A (HEK293T …); assay: cell-based or functional assay; remark: listed apart in the source
[18] = biological target: T2, hCMV gH + gL + UL128 + UL130 + UL131A …; assay: cell competition; competitor 6G4-biotin
[19] = biological target: T2, hCMV gH + gL + UL128 + UL130 + UL131A …; assay: cell competition; competitor 5A2-biotin
[20] = biological target: T2, hCMV gH + gL + UL128 + UL130 + UL131A …; assay: cell competition; competitor 4N10-biotin
[21] = biological target: T2, hCMV gH + gL + UL128 + UL130 + UL131A …; assay: cell competition; competitor 15D8-biotin
[22] = biological target: T2, hCMV gH + gL + UL128 + UL130 + UL131A …; assay: cell competition; competitor 10F7-biotin

T1 sequence (P06473 32-906 limits assumed): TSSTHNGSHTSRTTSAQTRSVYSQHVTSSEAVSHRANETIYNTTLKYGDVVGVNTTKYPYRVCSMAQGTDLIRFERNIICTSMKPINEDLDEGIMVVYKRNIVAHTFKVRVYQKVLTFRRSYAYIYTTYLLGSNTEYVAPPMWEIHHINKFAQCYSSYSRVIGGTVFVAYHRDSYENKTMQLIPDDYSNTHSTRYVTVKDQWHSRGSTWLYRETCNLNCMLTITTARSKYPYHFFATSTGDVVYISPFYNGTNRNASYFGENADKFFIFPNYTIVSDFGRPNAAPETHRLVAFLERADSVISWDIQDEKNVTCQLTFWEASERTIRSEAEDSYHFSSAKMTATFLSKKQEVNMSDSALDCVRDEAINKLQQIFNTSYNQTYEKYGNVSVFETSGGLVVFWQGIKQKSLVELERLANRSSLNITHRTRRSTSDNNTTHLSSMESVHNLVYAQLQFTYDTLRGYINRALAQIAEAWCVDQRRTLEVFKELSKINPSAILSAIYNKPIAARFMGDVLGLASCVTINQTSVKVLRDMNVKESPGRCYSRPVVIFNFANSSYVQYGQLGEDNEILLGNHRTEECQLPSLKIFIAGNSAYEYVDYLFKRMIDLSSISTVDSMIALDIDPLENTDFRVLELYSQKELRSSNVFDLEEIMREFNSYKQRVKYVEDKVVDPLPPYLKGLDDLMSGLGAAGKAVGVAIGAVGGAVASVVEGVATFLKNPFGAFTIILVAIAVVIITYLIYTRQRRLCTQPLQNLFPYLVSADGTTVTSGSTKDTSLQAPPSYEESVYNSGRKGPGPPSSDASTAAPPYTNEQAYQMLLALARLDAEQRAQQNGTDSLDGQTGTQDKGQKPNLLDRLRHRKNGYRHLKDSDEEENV
T3 sequence (P16837 whole entry, chain 1 of 2): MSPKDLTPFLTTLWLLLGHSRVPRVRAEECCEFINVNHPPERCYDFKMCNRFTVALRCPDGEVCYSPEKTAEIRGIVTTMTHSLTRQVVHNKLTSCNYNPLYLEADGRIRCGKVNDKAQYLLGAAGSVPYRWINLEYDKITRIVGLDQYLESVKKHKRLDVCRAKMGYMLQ
T3 sequence (P16772 whole entry, chain 2 of 2): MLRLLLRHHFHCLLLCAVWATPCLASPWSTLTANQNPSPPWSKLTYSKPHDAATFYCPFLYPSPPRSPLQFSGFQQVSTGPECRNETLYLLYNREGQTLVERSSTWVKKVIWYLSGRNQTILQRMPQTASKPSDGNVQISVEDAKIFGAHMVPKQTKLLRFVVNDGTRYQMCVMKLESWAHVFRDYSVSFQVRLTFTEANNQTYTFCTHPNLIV

Row | Binder | Inhibition of binding (%) [8] [%] | Inhibition of binding (%) [9] [%] | 50% neutralization VR1814, ARPE [10] [µg/mL] | 50% neutralization VR1814, MRC-9 [10] [µg/mL] | Inhibition of binding (%) [11] [%] | Inhibition of binding (%) [12] [%] | Inhibition of binding (%) [13] [%] | Inhibition of binding (%) [14] [%] | Inhibition of binding (%) [15] [%] | Inhibition of binding (%) [16] [%] | 90% neutralization VR1814, ARPE [17] [µg/mL] | 90% neutralization VR1814, MRC-9 [17] [µg/mL] | Inhibition of binding (%) [18] [%] | also measured
1 | B1 | – | – | – | – | – | – | – | – | – | – | – | – | – | Inhibition of binding (%) [1]: 100%; Inhibition of binding (%) [2]: 0%; Inhibition of binding (%) [3]: 0%; Inhibition of binding (%) [4]: 100%; 90% neutralization VR1814, ARPE [5]: 0.2 µg/mL; 90% neutralization VR1814, MRC-9 [5]: 0.75 µg/mL; Inhibition of binding (%) [6]: 100%; Inhibition of binding (%) [7]: 100%
2 | B2 | 100 | 100 | < 0.001 | > 2 | 70 | 0 | 100 | 0 | 0 | 0 | 0.0008 | > 10 | 100 | –
3 | B3 | 100 | 100 | < 0.001 | > 2 | 100 | 0 | 100 | 0 | 0 | 0 | 0.0007 | > 10 | 100 | –
4 | B4 | 100 | 100 | < 0.001 | > 2 | 100 | 0 | 100 | 0 | – | – | 0.0025 | > 10 | 100 | –
5 | B5 | 100 | 100 | < 0.01 | ≤ 2 | 100 | 0 | 100 | 0 | 0 | 0 | 0.006 | > 10 | 100 | Inhibition of binding (%) [19]: 0%; Inhibition of binding (%) [20]: 0%; Inhibition of binding (%) [21]: 0%; Inhibition of binding (%) [22]: 0%
6 | B6 | 0 | 0 | < 0.01 | > 2 | 0 | 0 | 0 | – | 0 | – | 0.008 | > 10 | 0 | –

Source: patent publication US20170296650A1 (Novartis, published 2017)
